Experimental data taken from US20100254975A1 (Amgen, published 2010).
Numbering of substitutions follows the chain as printed. Each block holds one molecule with its values, some of them ahead of it.

Columns and labels:
human alpha4beta7 [1] = target: T1, human alpha4beta7 (human, UniProt P13612 34-1032; P26010 20-798); assay: FACS on transfected 293 cells, 1 microG/ml, PE anti-human IgG; control
a4(Q878R)b7 (human) [2] = target: a4(Q878R)b7 (human) (UniProt P13612); assay: as above
a4(V824A)b7 (human) [3] = target: a4(V824A)b7 (human) (UniProt P13612); assay: as above
a4b7(E97V) (human) [4] = target: a4b7(E97V) (human) (UniProt P13612); assay: as above
a4b7(G629S) (human) [5] = target: a4b7(G629S) (human) (UniProt P13612); assay: as above
a4b7(R213S) (human) [6] = target: a4b7(R213S) (human) (UniProt P13612); assay: as above
human alpha4beta7 [7] = target: T1, human alpha4beta7; assay: cell-based or functional assay
a4(Q878R)b7 (human) [8] = target: a4(Q878R)b7 (human) (UniProt P13612); assay: FACS on transfected 293 cells, 1 microG/ml, PE anti-human IgG
a4(V824A)b7 (human) [9] = target: a4(V824A)b7 (human) (UniProt P13612); assay: as above
a4b7(E97V) (human) [10] = target: a4b7(E97V) (human) (UniProt P13612); assay: as above
a4b7(G629S) (human) [11] = target: a4b7(G629S) (human) (UniProt P13612); assay: as above
a4b7(R213S) (human) [12] = target: a4b7(R213S) (human) (UniProt P13612); assay: as above
human alpha4beta7 [13] = target: T1, human alpha4beta7; assay: as above
From the text: Point mutant constructs representing amino acid altering SNPs (a4b7(E97V); a4b7(R213S); a4b7(G629S; a4(V824A)b7; a4(Q878R)b7) in the extracellular domains of both alpha4 and beta7 were generated. Each point mutant construct was transfected to 293 cells along with the wild-type partner expression construct. Transfected 293 cells were first stained with 1 microG/ml of human IgG or anti-alpha4beta7 antibody, washed with PBS, and the stained with phycoerytherin conjugated secondary antibody goat-anti human IgG. After washing with PBS, cells were analyzed by fluorescence activated cell sorting, for example, with a FACSCalibur™ (BD Biosciences, San Jose Calif.).

human alpha4beta7 [14] = target: T1, human alpha4beta7; assay: FACS, biotinylated antibody on human CD4+CD45RA- memory T cells
Procedure: Human peripheral blood mononuclear cells (PBMC; fresh or frozen and thawed, for example in phosphate buffered saline with 2% FBS) are washed and resuspended in HEPES buffer (30 mM HEPES+[…]) with 1% BSA, with or without 1 mM MnCl₂ (depending on the experiment; Mn²⁺ is necessary for MAdCAM-1 binding) and plated into 96 well plates (10⁶cells/well). Cells are incubated with 10 microG/ml human IgG for 30 minutes on ice to block nonspecific binding. Cells are then incubated with serial dilutions of biotinylated anti-alpha4beta7 antibodies in 96 well plates for one hour on ice, followed by addition of 1:100 dilution of streptavidin-phycoerythrin (PE; Jackson ImmunoResearch Laboratories Inc., West Grove, Pa.), 4 microL CD3-Pacific Blue, CD4-PerCP-Cy5.5 and CD45RA-fluorescein isothiocyanate (FITC) (BD Biosciences, San Jose Calif.) for a final volume of 100 microL, and incubated for another hour on ice. Cells were washed twice with HEPES buffer (with or without MnCl₂, correspondingly) and then fixed in 200 microL HEPES buffer plus 0.5% paraformaldehyde (again, with or without MnCl₂, correspondingly). The percentage of positive alpha4beta7 antibody binding CD4+CD45RA-memory T cells is determined using a fluorescence activated cell sorter (FACS), for example, a BD™ LSR II benchtop flow cytometer (BD Biosciences, San Jose Calif.).

human alpha4beta7 [15] = target: T1, human alpha4beta7; assay: KinExA, HUT78 cells expressing human alpha4beta7, n-curve analysis
From the text: (§1) To measure cell binding affinity of human anti-alpha4beta7antibodies, a Kinetic Exclusion Assay which measures binding events in solution phase can be used to calculate the equilibrium dissociation constant, Kd. KinExA® Technology (Sapidyne Instruments, Boise, Id.) was used, substantially as described previously by Xie et. al. J. Imm, Methods 304:1 (2005) and Rathanaswami et. al. Anal. Biochem. 373:52 (2008). Briefly, HUT78 cells expressing human alpha4beta7 were titrated 1 in 3 from […] to ˜400 cells/mL and then equilibrated with a final concentration of either 2 or 30 pM of mAb 2F12 or 18A11 and 30 or 500 pM for 17C8 for 18 hours at 4° C. The free antibody remaining in the supernatant at equilibrium was measured by KinExA® technology by passing the supernatant over PMMA beads pre-coated with goat anti-human Fc and detected with goat anti-human (H+L) Cy5 (substantially as described by Rathanaswami et al. Biochem Biophys Research Commun:1004 (2005). The equilibrium dissociation constant (Kd) is obtained using KinExA® software by “n-curve analysis” which fits all of the given curves to a single Kdvalue simultaneously (Rathanswami et al. 2005 and Xie et al., supra).; results are shown below in Table 7.

human alpha4beta7 [16] = target: T1, human alpha4beta7; assay: KinExA, HUT78 cells expressing human alpha4beta7, lower bound of Kd
From the text: as §1

human alpha4beta7 [17] = target: T1, human alpha4beta7; assay: KinExA, HUT78 cells expressing human alpha4beta7, upper bound of Kd
From the text: as §1

human alpha4beta7 [18] = target: T1, human alpha4beta7; assay: FACS competition, blocks biotinylated MAdCAM-1-Fc binding to human CD4+CD45RA- memory T cells
Procedure: PBMC (fresh or frozen as described previously) are washed and resuspended in HEPES buffer (30 mM HEPES+[…]) with 1% BSA and 1 mM MnCl. to a final concentration of 10⁷cells/ml. Cells are blocked as described previously; after blocking, cells are incubated with a serial dilution of anti-alpha4beta7 antibody (or appropriate control) in 96 well plates for 30 minutes on ice, and then with 0.3 microG/ml biotinylated MAdCAM-1-Fc protein for another one hour.
After two washes in HEPES buffer with 1 mM MnCl, cells are treated with 1:100 dilution of streptavidin-PE, 4 microL CD3-Pacific Blue, CD4-PerCP-Cy5.5 and CD45RA-FITC as described previously, in a final volume of 100 microL. After one hour incubation on ice, cells are washed twice with HEPES buffer with 1 mM MnCl and then fixed in 200 microL buffer plus 0.5% paraformaldehyde. The percentage of positive MAdCAM-1-Fc binding CD4+CD45RA-memory T cells is determined by fluorescence activated cell sorter (FACS) analysis, as described previously.

Chain of a4b7(R213S) (human) (P13612 34-1032, chain 1 of 2): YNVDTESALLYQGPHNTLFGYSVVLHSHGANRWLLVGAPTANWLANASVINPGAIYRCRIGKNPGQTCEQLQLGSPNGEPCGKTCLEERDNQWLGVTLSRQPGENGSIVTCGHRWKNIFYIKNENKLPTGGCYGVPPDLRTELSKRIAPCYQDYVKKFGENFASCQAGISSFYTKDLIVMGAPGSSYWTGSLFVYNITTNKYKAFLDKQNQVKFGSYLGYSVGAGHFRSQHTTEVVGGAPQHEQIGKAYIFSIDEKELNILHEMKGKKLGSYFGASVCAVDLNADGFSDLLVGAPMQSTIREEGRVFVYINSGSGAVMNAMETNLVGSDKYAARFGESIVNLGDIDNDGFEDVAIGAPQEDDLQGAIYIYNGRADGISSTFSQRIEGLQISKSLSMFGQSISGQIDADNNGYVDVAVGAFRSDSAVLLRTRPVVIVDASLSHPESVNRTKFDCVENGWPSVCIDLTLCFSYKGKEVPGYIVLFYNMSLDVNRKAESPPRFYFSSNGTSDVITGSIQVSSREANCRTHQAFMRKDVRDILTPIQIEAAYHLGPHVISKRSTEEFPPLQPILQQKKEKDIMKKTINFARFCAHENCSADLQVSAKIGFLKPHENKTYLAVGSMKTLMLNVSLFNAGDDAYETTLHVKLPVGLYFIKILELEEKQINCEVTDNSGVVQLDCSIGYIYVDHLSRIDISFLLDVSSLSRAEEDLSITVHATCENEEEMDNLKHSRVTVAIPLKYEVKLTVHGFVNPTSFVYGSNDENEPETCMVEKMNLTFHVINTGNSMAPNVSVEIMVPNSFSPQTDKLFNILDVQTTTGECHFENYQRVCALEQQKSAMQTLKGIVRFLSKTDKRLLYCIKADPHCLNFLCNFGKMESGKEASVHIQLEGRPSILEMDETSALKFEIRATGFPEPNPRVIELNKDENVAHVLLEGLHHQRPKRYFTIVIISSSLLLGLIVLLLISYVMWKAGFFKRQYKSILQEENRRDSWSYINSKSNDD
Chain of a4b7(R213S) (human) (P26010 20-798 R213S, chain 2 of 2, further chain): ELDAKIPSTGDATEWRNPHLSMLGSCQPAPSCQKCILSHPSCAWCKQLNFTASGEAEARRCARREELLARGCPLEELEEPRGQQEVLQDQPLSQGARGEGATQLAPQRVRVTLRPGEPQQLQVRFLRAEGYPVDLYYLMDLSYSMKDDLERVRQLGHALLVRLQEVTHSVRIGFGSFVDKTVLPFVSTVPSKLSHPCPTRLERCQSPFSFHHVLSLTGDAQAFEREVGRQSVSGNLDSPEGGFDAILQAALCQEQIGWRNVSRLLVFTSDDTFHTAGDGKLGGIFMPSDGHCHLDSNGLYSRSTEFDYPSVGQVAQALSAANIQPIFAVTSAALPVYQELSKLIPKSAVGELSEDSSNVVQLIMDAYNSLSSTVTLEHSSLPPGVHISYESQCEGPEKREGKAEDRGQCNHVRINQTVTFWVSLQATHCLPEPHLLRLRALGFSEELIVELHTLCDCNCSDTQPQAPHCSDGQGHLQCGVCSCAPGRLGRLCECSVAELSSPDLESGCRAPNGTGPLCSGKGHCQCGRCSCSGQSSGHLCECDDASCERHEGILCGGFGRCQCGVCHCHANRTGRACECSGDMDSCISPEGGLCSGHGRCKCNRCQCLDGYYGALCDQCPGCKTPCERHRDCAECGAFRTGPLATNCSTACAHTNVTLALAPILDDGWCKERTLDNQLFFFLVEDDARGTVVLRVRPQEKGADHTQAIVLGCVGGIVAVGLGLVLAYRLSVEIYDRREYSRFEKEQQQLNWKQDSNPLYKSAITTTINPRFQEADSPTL
T1 sequence (P13612 34-1032, chain 1 of 2): as the sequence (P13612 34-1032, chain 1 of 2) above
T1 sequence (P26010 20-798, chain 2 of 2): as the sequence (P26010 20-798 R213S, chain 2 of 2, further chain) above, with S194R counted along it
Chain of a4b7(E97V) (human) (P13612 34-1032, chain 1 of 2): as the sequence (P13612 34-1032, chain 1 of 2) above
Chain of a4b7(E97V) (human) (P26010 20-798 E97V, chain 2 of 2, further chain): as the sequence (P26010 20-798 R213S, chain 2 of 2, further chain) above, with E78V, S194R counted along it
Chain of a4(Q878R)b7 (human) (P13612 34-1032, chain 1 of 2): as the sequence (P13612 34-1032, chain 1 of 2) above
Chain of a4(Q878R)b7 (human) (P26010 20-798, chain 2 of 2, further chain): as the sequence (P26010 20-798 R213S, chain 2 of 2, further chain) above, with S194R counted along it
Chain of a4b7(G629S) (human) (P13612 34-1032, chain 1 of 2): as the sequence (P13612 34-1032, chain 1 of 2) above
Chain of a4b7(G629S) (human) (P26010 20-798 G629S, chain 2 of 2, further chain): as the sequence (P26010 20-798 R213S, chain 2 of 2, further chain) above, with S194R, G610S counted along it
Chain of a4(V824A)b7 (human) (P13612 34-1032 V824A, chain 1 of 2): as the sequence (P13612 34-1032, chain 1 of 2) above, with V791A counted along it
Chain of a4(V824A)b7 (human) (P26010 20-798, chain 2 of 2, further chain): as the sequence (P26010 20-798 R213S, chain 2 of 2, further chain) above, with S194R counted along it

- fluorescence staining intensity (geometric mean) (human alpha4beta7 [1]): 8
- fluorescence staining intensity (geometric mean) (a4(Q878R)b7 (human) [2]): 7
- fluorescence staining intensity (geometric mean) (a4(V824A)b7 (human) [3]): 7
- fluorescence staining intensity (geometric mean) (a4b7(E97V) (human) [4]): 7
- fluorescence staining intensity (geometric mean) (a4b7(G629S) (human) [5]): 7
- fluorescence staining intensity (geometric mean) (a4b7(R213S) (human) [6]): 7
Molecule: human IgG (antibody)

- HUT78 Adhesion IC50 (human alpha4beta7 [7]): 11.4 ng/mL
- fluorescence staining intensity (geometric mean) (a4(Q878R)b7 (human) [8]): 73
- fluorescence staining intensity (geometric mean) (a4(V824A)b7 (human) [9]): 112
- fluorescence staining intensity (geometric mean) (a4b7(E97V) (human) [10]): 134
- fluorescence staining intensity (geometric mean) (a4b7(G629S) (human) [11]): 80
- fluorescence staining intensity (geometric mean) (a4b7(R213S) (human) [12]): 37
- fluorescence staining intensity (geometric mean) (human alpha4beta7 [13]): 129
- EC50 (human alpha4beta7 [14]): 3.3 ng/mL
- Kd (human alpha4beta7 [15]): 4.56 pM
- Kd low (human alpha4beta7 [16]): 1.94 pM
- Kd high (human alpha4beta7 [17]): 11.1 pM
- IC50 (human alpha4beta7 [18]): 4.6 ng/mL
B1: 2F12 (antibody, V domains shown)
VH: QVQLVQSGAEVKKPGASVKVSCKVSGYTVTDLSMHWVRQAPGKGLEWMGGFDPQDGETIYAQKFQGRVTMTEDTSTDTAYMELRSLRSEDTAVYYCTTESSSAWFDPWGQGTLVTVSS
VL: DIQMTQSPSSVFASVGDRVTITCRASQGISSWLAWYQQKPGKAPNLLIYGASSLQNGVPLRFSGSGSGTDFTLTISSLQPEDFATYYCQQANSFPWTFGQGTKVEIK
notes: Fully human monoclonal from XenoMouse (human IgG2 or IgG4); kappa light chain; also called 2F12K; 2F12H

- HUT78 Adhesion IC50 (human alpha4beta7 [7]): 7.4 ng/mL
- fluorescence staining intensity (geometric mean) (a4(Q878R)b7 (human) [8]): 56
- fluorescence staining intensity (geometric mean) (a4(V824A)b7 (human) [9]): 82
- fluorescence staining intensity (geometric mean) (a4b7(E97V) (human) [10]): 105
- fluorescence staining intensity (geometric mean) (a4b7(G629S) (human) [11]): 63
- fluorescence staining intensity (geometric mean) (a4b7(R213S) (human) [12]): 30
- fluorescence staining intensity (geometric mean) (human alpha4beta7 [13]): 92
- EC50 (human alpha4beta7 [14]): 4.7 ng/mL
- Kd (human alpha4beta7 [15]): 0.9 pM
- Kd low (human alpha4beta7 [16]): 0.23 pM
- Kd high (human alpha4beta7 [17]): 2.29 pM
- IC50 (human alpha4beta7 [18]): 7.3 ng/mL
B2: 18A11 (antibody, V domains shown)
VH: B1 VH with V29L, T30S, M34I, R84S, R87K, T97A, E99G, A103S
VL: B1 VL with F12S, N45K, S53N, Q55E, N56S, L60S, T85N
notes: Fully human monoclonal from XenoMouse (human IgG2 or IgG4); kappa light chain; also called 18A11K; 18A11H

- HUT78 Adhesion IC50 (human alpha4beta7 [7]): 6.8 ng/mL
- fluorescence staining intensity (geometric mean) (a4(Q878R)b7 (human) [8]): 51
- fluorescence staining intensity (geometric mean) (a4(V824A)b7 (human) [9]): 74
- fluorescence staining intensity (geometric mean) (a4b7(E97V) (human) [10]): 96
- fluorescence staining intensity (geometric mean) (a4b7(G629S) (human) [11]): 58
- fluorescence staining intensity (geometric mean) (a4b7(R213S) (human) [12]): 49
- fluorescence staining intensity (geometric mean) (human alpha4beta7 [13]): 93
- EC50 (human alpha4beta7 [14]): 22.9 ng/mL
- Kd (human alpha4beta7 [15]): 29.4 pM
- Kd low (human alpha4beta7 [16]): 12.1 pM
- Kd high (human alpha4beta7 [17]): 74.5 pM
- IC50 (human alpha4beta7 [18]): 31.1 ng/mL
B3: 17C8 (antibody, V domains shown)
VH: QVQLVESGGGLVKPGGSLRLSCAASGFTFSDYYMSWIRQAPGKGLEWLSYISNSGSAMYYADSVKGRFTISRDNARNSLYLQMNSLRAEDTAVYYCAREYSSGWFFFESWGQGTLVTVSS
VL: EIVMTQSPATLSVSPGERATLSCRASQSVSSNLVWYQQKPGQAPRLLIYGASTRATGIPARFSGSGSGTDFTLTISSLQSEDFAVYYCQQYDDWPPLTFGGGTTVEIK
notes: Fully human monoclonal from XenoMouse (human IgG2 or IgG4); kappa light chain; also called 17C8K; 17C8H
